Measured values from patent publication US20190077860A1 (EISAI R AND D MANAGEMENT, published 2019).

T1: human EphA1 extracellular region-SEAP-His protein (human, UniProt P21709 26-547)
T1 construct: extracellular domain; also called hEphA1-SEAP-His
T1 sequence (looked up): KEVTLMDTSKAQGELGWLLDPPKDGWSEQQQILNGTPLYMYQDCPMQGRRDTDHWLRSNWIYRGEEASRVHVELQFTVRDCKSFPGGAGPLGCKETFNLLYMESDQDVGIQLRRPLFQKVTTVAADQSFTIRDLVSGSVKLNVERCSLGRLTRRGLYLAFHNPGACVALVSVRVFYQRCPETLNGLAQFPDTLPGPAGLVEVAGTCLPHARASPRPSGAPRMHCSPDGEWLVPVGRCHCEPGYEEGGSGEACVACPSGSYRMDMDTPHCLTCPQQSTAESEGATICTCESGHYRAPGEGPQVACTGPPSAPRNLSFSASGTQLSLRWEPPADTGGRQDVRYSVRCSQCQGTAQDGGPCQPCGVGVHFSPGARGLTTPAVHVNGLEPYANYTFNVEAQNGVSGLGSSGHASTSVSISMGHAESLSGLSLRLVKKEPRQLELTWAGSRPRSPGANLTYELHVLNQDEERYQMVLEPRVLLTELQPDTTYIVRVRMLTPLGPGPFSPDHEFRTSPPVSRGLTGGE

T2: human EphA3 extracellular region-SEAP-His protein (human, UniProt P29320 21-541)
T2 construct: extracellular domain; also called hEphA3-SEAP-His
T2 sequence (looked up): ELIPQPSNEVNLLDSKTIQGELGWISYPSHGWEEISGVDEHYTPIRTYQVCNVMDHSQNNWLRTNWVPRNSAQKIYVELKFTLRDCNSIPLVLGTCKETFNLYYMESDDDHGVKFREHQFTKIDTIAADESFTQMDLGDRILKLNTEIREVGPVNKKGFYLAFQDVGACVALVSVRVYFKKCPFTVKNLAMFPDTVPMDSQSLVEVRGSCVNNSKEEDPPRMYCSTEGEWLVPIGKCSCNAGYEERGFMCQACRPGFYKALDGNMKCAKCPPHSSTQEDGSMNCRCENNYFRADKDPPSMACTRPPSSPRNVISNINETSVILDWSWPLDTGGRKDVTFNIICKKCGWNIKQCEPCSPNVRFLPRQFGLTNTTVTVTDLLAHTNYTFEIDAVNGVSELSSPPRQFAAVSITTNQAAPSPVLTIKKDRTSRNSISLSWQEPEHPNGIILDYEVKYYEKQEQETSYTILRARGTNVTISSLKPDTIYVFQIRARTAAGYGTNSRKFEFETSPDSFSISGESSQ

T3: human EphA6 extracellular region-SEAP-His protein (human, UniProt Q9UF33 23-550)
T3 construct: extracellular domain; also called hEphA6-SEAP-His
T3 sequence (looked up): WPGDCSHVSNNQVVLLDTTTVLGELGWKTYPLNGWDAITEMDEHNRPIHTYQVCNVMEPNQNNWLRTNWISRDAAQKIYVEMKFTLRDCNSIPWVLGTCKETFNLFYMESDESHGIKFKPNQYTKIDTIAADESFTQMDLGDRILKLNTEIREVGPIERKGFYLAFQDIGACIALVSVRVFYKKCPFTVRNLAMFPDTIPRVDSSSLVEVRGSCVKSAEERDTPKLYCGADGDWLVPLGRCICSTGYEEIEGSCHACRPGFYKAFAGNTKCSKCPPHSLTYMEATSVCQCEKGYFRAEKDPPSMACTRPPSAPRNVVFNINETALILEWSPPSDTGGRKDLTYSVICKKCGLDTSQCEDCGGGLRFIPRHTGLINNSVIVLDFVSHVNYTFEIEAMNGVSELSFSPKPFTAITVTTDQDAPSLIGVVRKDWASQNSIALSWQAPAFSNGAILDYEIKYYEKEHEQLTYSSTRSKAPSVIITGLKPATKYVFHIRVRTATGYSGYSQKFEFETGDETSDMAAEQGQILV

T4: human EphB1 extracellular region-SEAP-His protein (human, UniProt P54762 18-540)
T4 construct: extracellular domain; also called hEphB1-SEAP-His
T4 sequence (looked up): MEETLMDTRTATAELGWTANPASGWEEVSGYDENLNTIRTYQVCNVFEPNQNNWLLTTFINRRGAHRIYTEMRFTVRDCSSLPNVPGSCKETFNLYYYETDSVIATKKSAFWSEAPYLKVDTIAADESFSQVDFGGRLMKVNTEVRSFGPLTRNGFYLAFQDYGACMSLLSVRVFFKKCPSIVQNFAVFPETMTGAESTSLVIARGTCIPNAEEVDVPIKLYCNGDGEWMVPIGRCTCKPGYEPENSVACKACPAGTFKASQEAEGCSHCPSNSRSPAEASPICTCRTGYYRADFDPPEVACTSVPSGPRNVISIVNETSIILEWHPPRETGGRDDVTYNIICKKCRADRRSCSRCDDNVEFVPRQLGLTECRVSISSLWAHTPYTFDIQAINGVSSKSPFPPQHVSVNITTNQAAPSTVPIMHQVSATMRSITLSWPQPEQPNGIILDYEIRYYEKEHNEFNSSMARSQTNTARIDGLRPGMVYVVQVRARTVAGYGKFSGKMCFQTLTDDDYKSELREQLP


What was measured:
Test in all cases: ELISA
SEAP-His = SEAP-His (UniProt P05187 23-511)
[1] = molecular target: T1, human EphA1 extracellular …
[2] = molecular target: T2, human EphA3 extracellular …
[3] = molecular target: T3, human EphA6 extracellular …
[4] = molecular target: T4, human EphB1 extracellular …
[5] = molecular target: T5, human EphA4 extracellular region-SEAP-His protein (human, UniProt P54764 20-547)
T5 construct: also called hEphA4-SEAP-His
T5 sequence (P54764 20-547): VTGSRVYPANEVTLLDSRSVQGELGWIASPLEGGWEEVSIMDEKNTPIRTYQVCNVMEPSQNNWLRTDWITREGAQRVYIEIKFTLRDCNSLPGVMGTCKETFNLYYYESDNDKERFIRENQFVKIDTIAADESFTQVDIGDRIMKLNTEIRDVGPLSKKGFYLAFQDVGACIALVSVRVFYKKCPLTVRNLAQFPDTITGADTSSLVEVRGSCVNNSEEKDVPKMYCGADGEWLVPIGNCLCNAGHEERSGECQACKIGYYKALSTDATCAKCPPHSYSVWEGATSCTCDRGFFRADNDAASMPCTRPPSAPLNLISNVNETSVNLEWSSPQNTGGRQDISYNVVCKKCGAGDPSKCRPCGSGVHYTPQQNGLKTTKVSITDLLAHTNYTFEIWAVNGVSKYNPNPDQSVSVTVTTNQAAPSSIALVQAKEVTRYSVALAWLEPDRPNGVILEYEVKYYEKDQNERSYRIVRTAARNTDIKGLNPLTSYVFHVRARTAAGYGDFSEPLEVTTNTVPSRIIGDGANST

Sequence of SEAP-His (P05187 23-511): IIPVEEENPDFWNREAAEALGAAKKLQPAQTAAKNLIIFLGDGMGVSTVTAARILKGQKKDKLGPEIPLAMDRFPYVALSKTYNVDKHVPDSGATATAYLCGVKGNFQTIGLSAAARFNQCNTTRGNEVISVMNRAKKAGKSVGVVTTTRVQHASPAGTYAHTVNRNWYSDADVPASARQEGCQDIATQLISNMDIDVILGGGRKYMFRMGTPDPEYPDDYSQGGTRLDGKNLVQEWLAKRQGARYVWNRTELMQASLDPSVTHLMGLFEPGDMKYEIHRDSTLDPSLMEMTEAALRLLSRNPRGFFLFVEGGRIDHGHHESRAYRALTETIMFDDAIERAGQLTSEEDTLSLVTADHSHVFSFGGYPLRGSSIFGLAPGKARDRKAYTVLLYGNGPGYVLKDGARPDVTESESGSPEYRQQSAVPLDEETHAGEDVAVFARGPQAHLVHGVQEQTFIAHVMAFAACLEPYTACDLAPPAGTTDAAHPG

| A450 as % of hEphA4-SEAP-His (SEAP-His) [%] | A450 as % of hEphA4-SEAP-His [1] [%] | A450 as % of hEphA4-SEAP-His [2] [%] | A450 as % of hEphA4-SEAP-His [3] [%] | A450 as % of hEphA4-SEAP-His [4] [%] | A450 as % of hEphA4-SEAP-His [5] [%] | Binder |
| --- | --- | --- | --- | --- | --- | --- |
| 5.6 | 5.6 | 5.6 | 9.2 | 5.4 | 100 | humanized antibody No. 71 (antibody, human IgG1, kappa, human Ig kappa; also called L2-4/HA4) heavy: QIQLVQSGSELKKPGASVKVSCKASGYTFTDYSMHWVRQAPGQGLKWMGWINTETGEPTYAQGFTGRFVFSLDTSVSTAYLQISSLKAEDTAVYYCARIPLYYYGSRYWYFDVWGQGTTVTVSSASTKGPSVFPLAPSSKSTSGGTAALGCLVKDYFPEPVTVSWNSGALTSGVHTFPAVLQSSGLYSLSSVVTVPSSSLGTQTYICNVNHKPSNTKVDKRVEPKSCDKTHTCPPCPAPPAAAPSVFLFPPKPKDTLMISRTPEVTCVVVDVSHEDPEVQFNWYVDGVEVHNAKTKPREEQFNSTFRVVSVLTVVHQDWLNGKEYKCKVSNKGLPAPIEKTISKTKGQPREPQVYTLPPSREEMTKNQVSLTCLVKGFYPSDIAVEWESNGQPENNYKTTPPMLDSDGSFFLYSKLTVDKSRWQQGNVFSCSVMHEALHNHYTQKSLSLSPG light: EIVMTQSPATLSVSPGERATLSCRASENIYRNLAWYQQKPGQSPRLLIYAATNLADGIPARFSGSGSGTEYTLTISSLQSEDFAVYYCQHFWGTPWTFGQGTKVEIKRTVAAPSVFIFPPSDEQLKSGTASVVCLLNNFYPREAKVQWKVDNALQSGNSQESVTEQDSKDSTYSLSSTLTLSKADYEKHKVYACEVTHQGLSSPVTKSFNRGEC |
| 4.4 | 4.5 | 4.8 | 7 | 4.6 | 100 | humanized antibody No. 95 (antibody, human IgG1, kappa, human Ig kappa; also called L2-4/HK1) heavy: QVQLVQSGSELKKPGASVKVSCKASGYTFTDYSMHWVRQAPGQGLEWMGWINTETGEPTYADDFKGRFVFSLDTSVSTAYLQISSLKAEDTAVYYCARIPLYYYGSRYWYFDVWGQGTTVTVSSASTKGPSVFPLAPSSKSTSGGTAALGCLVKDYFPEPVTVSWNSGALTSGVHTFPAVLQSSGLYSLSSVVTVPSSSLGTQTYICNVNHKPSNTKVDKRVEPKSCDKTHTCPPCPAPPAAAPSVFLFPPKPKDTLMISRTPEVTCVVVDVSHEDPEVQFNWYVDGVEVHNAKTKPREEQFNSTFRVVSVLTVVHQDWLNGKEYKCKVSNKGLPAPIEKTISKTKGQPREPQVYTLPPSREEMTKNQVSLTCLVKGFYPSDIAVEWESNGQPENNYKTTPPMLDSDGSFFLYSKLTVDKSRWQQGNVFSCSVMHEALHNHYTQKSLSLSPG light: EIVMTQSPATLSVSPGERATLSCRASENIYRNLAWYQQKPGQSPRLLIYAATNLADGIPARFSGSGSGTEYTLTISSLQSEDFAVYYCQHFWGTPWTFGQGTKVEIKRTVAAPSVFIFPPSDEQLKSGTASVVCLLNNFYPREAKVQWKVDNALQSGNSQESVTEQDSKDSTYSLSSTLTLSKADYEKHKVYACEVTHQGLSSPVTKSFNRGEC |
| 5.8 | 6 | 5.8 | 7.4 | 5.7 | 100 | humanized antibody No. 73 (antibody, human IgG1, kappa, human Ig kappa; also called L2-4/HK4) heavy: QIQLVQSGSELKKPGASVKVSCKASGYTFTDYSMHWVRQAPGQGLKWMGWINTETGEPTYADDFKGRFVFSLDTSVSTAYLQISSLKAEDTAVYYCARIPLYYYGSRYWYFDVWGQGTTVTVSSASTKGPSVFPLAPSSKSTSGGTAALGCLVKDYFPEPVTVSWNSGALTSGVHTFPAVLQSSGLYSLSSVVTVPSSSLGTQTYICNVNHKPSNTKVDKRVEPKSCDKTHTCPPCPAPPAAAPSVFLFPPKPKDTLMISRTPEVTCVVVDVSHEDPEVQFNWYVDGVEVHNAKTKPREEQFNSTFRVVSVLTVVHQDWLNGKEYKCKVSNKGLPAPIEKTISKTKGQPREPQVYTLPPSREEMTKNQVSLTCLVKGFYPSDIAVEWESNGQPENNYKTTPPMLDSDGSFFLYSKLTVDKSRWQQGNVFSCSVMHEALHNHYTQKSLSLSPG light: EIVMTQSPATLSVSPGERATLSCRASENIYRNLAWYQQKPGQSPRLLIYAATNLADGIPARFSGSGSGTEYTLTISSLQSEDFAVYYCQHFWGTPWTFGQGTKVEIKRTVAAPSVFIFPPSDEQLKSGTASVVCLLNNFYPREAKVQWKVDNALQSGNSQESVTEQDSKDSTYSLSSTLTLSKADYEKHKVYACEVTHQGLSSPVTKSFNRGEC |
| 5 | 5 | 5.1 | 7.1 | 5 | 100 | humanized antibody No. 93 (antibody, human IgG1, kappa, human Ig kappa; also called L2-4/HA1) heavy: QVQLVQSGSELKKPGASVKVSCKASGYTFTDYSMHWVRQAPGQGLEWMGWINTETGEPTYAQGFTGRFVFSLDTSVSTAYLQISSLKAEDTAVYYCARIPLYYYGSRYWYFDVWGQGTTVTVSSASTKGPSVFPLAPSSKSTSGGTAALGCLVKDYFPEPVTVSWNSGALTSGVHTFPAVLQSSGLYSLSSVVTVPSSSLGTQTYICNVNHKPSNTKVDKRVEPKSCDKTHTCPPCPAPPAAAPSVFLFPPKPKDTLMISRTPEVTCVVVDVSHEDPEVQFNWYVDGVEVHNAKTKPREEQFNSTFRVVSVLTVVHQDWLNGKEYKCKVSNKGLPAPIEKTISKTKGQPREPQVYTLPPSREEMTKNQVSLTCLVKGFYPSDIAVEWESNGQPENNYKTTPPMLDSDGSFFLYSKLTVDKSRWQQGNVFSCSVMHEALHNHYTQKSLSLSPG light: EIVMTQSPATLSVSPGERATLSCRASENIYRNLAWYQQKPGQSPRLLIYAATNLADGIPARFSGSGSGTEYTLTISSLQSEDFAVYYCQHFWGTPWTFGQGTKVEIKRTVAAPSVFIFPPSDEQLKSGTASVVCLLNNFYPREAKVQWKVDNALQSGNSQESVTEQDSKDSTYSLSSTLTLSKADYEKHKVYACEVTHQGLSSPVTKSFNRGEC |
